From US20210238265A1 (Biogen, published 2021)

Target: T1, His-tagged Tau domain IV (AA 355-441 of hTau40) (human, UniProt O02828 317-403 (Capra hircus entry))
T1 construct: Expressed in E. coli BL21 (DE3) and purified on Ni-NTA; not shown: N-terminal 6xHis tag from pRSET-A vector
Experiment: Western blot of His-tagged tau domains and hTau40
Description: DNA fragments, synthesized using GeneArt® (Invitrogen), which encode each Tau domain with 6×His tagged at the N-terminus were cloned into the pRSET-A expression vector (Invitrogen), were transfected into E. coli BL21 (DE3) (New England Biolabs). The expressions of the His-tagged Tau domains were induced by 0.5 mM IPTG for six hours before bacteria were lysed with lysozyme with sonication. The lysate was boiled for five minutes before being further purified with Ni-NTA Superflow Columns (Qiagen). The eluted His-tagged Tau domains were coated on ELISA plates or loaded on polyacrylamide gel for Western Blot. These sequentially overlapping tau domain polypeptides cover the full length of hTau40 (FIG. 13A).

T1 sequence (O02828 317-403): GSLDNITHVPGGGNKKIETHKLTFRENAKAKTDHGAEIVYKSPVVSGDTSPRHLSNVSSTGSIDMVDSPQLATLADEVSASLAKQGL

binding result: no binding
B1: Recombinant human antibody NI-105.4A3 (antibody, V domains shown)
VH: QVQLVESGGGAVQPGGSLRLSCAASGFTFSDYAMHWVRQAPGKGLQWVAVISYEGTYKYYADSVKGRFTISRDNSKNTLNLQMSSLRVEDTAVYFCVKARAFASGQRSTSTVPDYWGQGTLVTVSS
VL: SYELTQPPSVSVSPGQTARITCSGDALPKKYAYWYQQKSGQAPVLVIYEDNKRPSGIPERFSGSSSGTVATLTISGAQVDDEADYYCYSTDISGDLRVFGGGTKLTVL
